Measurements published in patent US20160024487.

Key:
[1] = target: T1, Lys(Dnp)-ATNATRPPRIVGG-Lys(Abz)
T1 chain: KATNATRPPRIVGGK

[2] = target: T2, Lys(Dnp)-ATNATLQPRIVGG-Lys(Abz)
T2 chain: KATNATLQPRIVGGK

[3] = target: T3, Lys(Dnp)-ATNATLAPRIVGG-Lys(Abz)
T3 chain: KATNATLAPRIVGGK

[4] = target: T4, Lys(Dnp)-ATNATPTPRIVGG-Lys(Abz)
T4 chain: KATNATPTPRIVGGK

[5] = target: T5, Lys(Dnp)-ATNATSLPRIVGG-Lys(Abz)
T5 chain: KATNATSLPRIVGGK

[6] = target: T6, Lys(Dnp)-ATNATYMPRIVGG-Lys(Abz)
T6 chain: KATNATYMPRIVGGK

[7] = target: T7, Lys(Dnp)-ATNATIEPRIVGG-Lys(Abz)
T7 chain: KATNATIEPRIVGGK

B1: Human plasma purified Factor Xa (protein)
chain 1: ANSFLEEMKKGHLERECMEETCSYEEAREVFEDSDKTNEFWNKYKDGDQCETSPCQNQGKCKDGLGEYTCTCLEGFEGKNCELFTRKLCSLDNGDCDQFCHEEQNSVVCSCARGYTLADNGKACIPTGPYPCGKQTLER
chain 2: IVGGQECKDGECPWQALLINEENEGFCGGTILSEFYILTAAHCLYQAKRFKVRVGDRNTEQEEGGEAVHEVEVVIKHNRFTKETYDFDIAVLRLKTPITFRMNVAPACLPERDWAESTLMTQKTGIVSGFGRTHEKGRQSTRLKMLEVPYVDRNSCKLSSSFIITQNMFCAGYDTKQEDACQGDSGGPHVTRFKDTYFVTGIVSWGEGCARKGKYGIYTKVTAFLKWIDRSMKTRGLPKAKSHAPEVITSSPLK
In the case of B1, the FXa kcat/KM [1] is reported as 7 M⁻¹ s⁻¹, the FXa kcat/KM [2] is reported as 1200 M⁻¹ s⁻¹ and the FXa kcat/KM [3] is reported as 230 M⁻¹ s⁻¹.

B2: Human plasma purified Factor Xa (Molecular Innovations, Inc) (protein)
chain 1: ANSFLEEMKKGHLERECMEETCSYEEAREVFEDSDKTNEFWNKYKDGDQCETSPCQNQGKCKDGLGEYTCTCLEGFEGKNCELFTRKLCSLDNGDCDQFCHEEQNSVVCSCARGYTLADNGKACIPTGPYPCGKQTLER
chain 2: IVGGQECKDGECPWQALLINEENEGFCGGTILSEFYILTAAHCLYQAKRFKVRVGDRNTEQEEGGEAVHEVEVVIKHNRFTKETYDFDIAVLRLKTPITFRMNVAPACLPERDWAESTLMTQKTGIVSGFGRTHEKGRQSTRLKMLEVPYVDRNSCKLSSSFIITQNMFCAGYDTKQEDACQGDSGGPHVTRFKDTYFVTGIVSWGEGCARKGKYGIYTKVTAFLKWIDRSMKTRGLPKAKSHAPEVITSSPLK
B2 showed an FXa kcat/KM [4] of 840 M⁻¹ s⁻¹, an FXa kcat/KM [5] of 82 M⁻¹ s⁻¹ and an FXa kcat/KM [6] of 160 M⁻¹ s⁻¹. The FXa kcat/KM [7] was 1300 M⁻¹ s⁻¹.
